Marks after values point to notes of the source that are not given here. Where no end group is shown, it is not given here.
T1: HAb18G/CD147 on HHCC hepatocellular carcinoma cells (human, UniProt P35613 140-385, glycosylated (mode not specified))
T1 sequence: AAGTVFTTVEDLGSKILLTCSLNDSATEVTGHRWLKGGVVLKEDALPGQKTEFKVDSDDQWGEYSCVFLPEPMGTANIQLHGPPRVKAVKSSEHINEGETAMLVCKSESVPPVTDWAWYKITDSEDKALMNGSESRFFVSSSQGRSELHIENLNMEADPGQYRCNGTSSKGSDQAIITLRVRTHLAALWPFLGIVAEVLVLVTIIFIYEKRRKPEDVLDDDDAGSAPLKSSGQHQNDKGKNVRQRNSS

B1: HAb18G/CD147 binding/antagonistic peptide (1) (peptide)
peptide: MTHDPVISLPTT
B2: HAb18G/CD147 binding/antagonistic peptide (5) (peptide)
peptide: IGWHYYLRTQHS
B3: HAb18G/CD147 binding/antagonistic peptide (6) (peptide)
peptide: YPFHHKHWHRPN
B4: HAb18G/CD147 binding/antagonistic peptide (7) (peptide)
peptide: ANIVPIHANHFQ
B5: HAb18G/CD147 binding/antagonistic peptide (8) (peptide)
peptide: MHKHPHGSQGPT
B6: HAb18G/CD147 binding/antagonistic peptide (9) (peptide)
peptide: YKLPGHHHHYRP
B7: HAb18G/CD147 binding/antagonistic peptide (2) (peptide)
peptide: LHRHSHGHSYKS
B8: HAb18G/CD147 binding/antagonistic peptide (3) (peptide)
peptide: GHWHNHRHQAPL
B9: HAb18G/CD147 binding/antagonistic peptide (4) (peptide)
peptide: KYPHQHLHMHDS
B10: HAb18G/CD147: hepatocellular carcinoma-associated antigen of 269 amino acids, purified from HHCC cells by HAb18 affinity chromatography (protein, listed as Homo sapiens)
chain: MAAALFVLLGFALLGTHGASGAAGTVFTTVEDLGSKILLTCSLNDSATEVTGHRWLKGGVVLKEDALPGQKTEFKVDSDDQWGEYSCVFLPEPMGTANIQLHGPPRVKAVKSSEHINEGETAMLVCKSESVPPVTDWAWYKITDSEDKALMNGSESRFFVSSSQGRSELHIENLNMEADPGQYRCNGTSSKGSDQAIITLRVRTHLAALWPFLGIVAEVLVLVTIIFIYEKRRKPEDVLDDDDAGSAPLKSSGQHQNDKGKNVRQRNSS

Tests used:
HHCCs = experiment: reconstituted basement membrane invasion assay with antagonistic peptides; format: cell-based, human; conditions: for inhibition of hepatocellular carcinoma cells invasion and metastasis (in words): reconstituted basement membrane invasion; for inhibitory rate (%): invasion of HHCCs through reconstituted basement membrane, 20 hours, vs control
Experimental: Matrigel (main component was type IV collagen, BD Company) was added onto the inner surface of Boyden Chambers (Millipore) to form the reconstituted basement membrane. Cells (HHCC cells and human fibroblasts) and antisense RNA were added and the chambers were put in the 24-well plates and co-cultured overnight. Cells infiltrated through the reconstituted basement membrane and appeared on the outer surfaces of the membrane were stained and counted under high-power microscope.
1. in vitro studies: reconstituted basement membrane invasion was employed to test the effects of the antagonistic peptides for HAb18G/CD147 on the invasive ability of HHCCs. Antagonistic peptides were co-cultured with HHCCs and fibroblasts on the reconstituted basement membrane for 20 hours. Cells infiltrated through the reconstituted basement membrane were counted under high-power microscope and the inhibitory rate of the antagonistic peptides was calculated.

HHCC cells = experiment: tumorigenesis of HHCC cells inoculated in mice; format: in vivo; conditions: i.v. 2.5 mg/kg; for inhibitory effect on tumorigenesis of hepatocellular carcinoma cells: 200 μl HHCC cells (1×10^6/ml)
Experimental: 2. in vivo studies: The mice were inoculated with 200 μl HHCC cells (1×10^6/ml) and were then treated with HAb18G/CD147 antagonistic peptides (i.v.) at the dose of 2.5 mg/kg weight. […] Moreover, the average survival time of mice in therapeutic group was two times as long as that of the control group. A high metastatic human hepatocellular carcinoma cell line MHCC97-H was transplanted into the liver of nude mice to investigate the anti-metastasis effects of APs. […] The inhibitory effects of HAb18G/CD147 antagonistic peptides on angiogenesis in chick embryo chorioallantoic membrane (CAM) as well as on angiogenesis induced by Matrigel plug were detected.

[1] = target: T1, HAb18G/CD147 on HHCC hepatocellular …; experiment: cell-based or functional assay
human fibroblasts = experiment: gelatin zymography of human fibroblasts stimulated by purified HAb18G/CD147; format: cell-based; conditions: MMP-9, MMP-2 and MT1-MMP
Experimental: The experiments were carried out as follows:
Purified HAb18G/CD147 was added to the cultured human fibroblasts and the supernatant of the culture was collected and then subjected to SDS-PAG electrophoresis in a separation gel containing 1 mg/ml gelatin. Different from the conventional SDS-PAGE, no DTT was added to the sample and furthermore, the sample was not boiled. After electrophoresis, the gel was washed twice (45 min/each time) at room temperature and washed twice (20 min/each time) with 0.1 mol/L NaCl, and then incubated for 24 hours in an incubation solution at 37° C. The gel was stained with 0.5% (w/v) Coomassie Blue and then destained. MMPs were detected as clear bands against a blue background.

Molecule	inhibition of hepatocellular carcinoma cells invasion and metastasis (in words) (HHCCs)	inhibitory rate (%) (HHCCs)	infiltrative cells [1]	inhibitory rate (%) [1]	also measured
GHWHNHRHQAPL [AP-3, antagonistic 12-mer peptide for HAb18G/CD147]	significantly inhibited	–	–	–	–
YKLPGHHHHYRP [AP-9, antagonistic 12-mer peptide for HAb18G/CD147]	significantly inhibited	81.19^a %	–	–	–
ANIVPIHANHFQ [AP-7, antagonistic 12-mer peptide for HAb18G/CD147]	significantly inhibited	56.44^a %	–	–	–
MTHDPVISLPTT [AP-1, antagonistic 12-mer peptide for HAb18G/CD147]	significantly inhibited	78.2^a %	–	–	inhibitory effect on tumorigenesis of hepatocellular carcinoma cells (HHCC cells): significant inhibitory effects
MHKHPHGSQGPT [AP-8, antagonistic 12-mer peptide for HAb18G/CD147]	significantly inhibited	68.32^a %	–	–	–
YPFHHKHWHRPN [AP-6, antagonistic 12-mer peptide for HAb18G/CD147]	significantly inhibited	62.38^a %	–	–	inhibitory effect on tumorigenesis of hepatocellular carcinoma cells (HHCC cells): significant inhibitory effects; tumor formation on the 11th day from inoculation (HHCC cells; HHCC cells, tumors formed in all control mice): no tumor formed
B1	–	–	4.4 cells	78.2%	–
B2	–	–	23.2 cells	-14.8%	–
B3	–	–	7.6 cells	62.4%	–
B4	–	–	8.8 cells	56.4%	–
B5	–	–	6.4 cells	68.3%	–
B6	–	–	3.8 cells	81.2%	–
B7	–	–	28 cells	-38.6%	–
B8	–	–	2 cells	90.1%	–
B9	–	–	12.2 cells	39.6%	–
B10	–	–	–	–	MMPs secreted by human fibroblasts after stimulation (human fibroblasts): secreted three different MMPs
